Reference: patent US6632626
Values belong to the substance of their own block, whether it stands above or below them.

How the values were obtained:
[1] = target: rat brain farnesyl:protein transferase (rat) (UniProt Q04631); assay: cell-based or functional assay

Substance: rat brain farnesyl:protein transferase
farnesylation of the peptide (substrate activity) (biotinylated KTSCVIM): The studies with the biotinyated heptapeptide ( FIG. 12B ) confirm that at least some of the short peptides act as substrates for the enzyme

concentration giving 50% inhibition (farnesyl transfer to p21^H-ras) [1]: 8 µM
Substance: CVIM with glycine at the A2 position (peptide)

fold decline of affinity for the enzyme [1]: > 50 fold
fold decrease of affinity for the enzyme against CVIM [1]: > 30 fold
Substance: CVIM with lysine at the A2 position (peptide)

fold decline of affinity for the enzyme [1]: > 50 fold
Substance: CVIM with glutamic acid at the A2 position (peptide)
